Where two headings read alike, the source gives them in different places.
Tests used:
[1] = molecular target: recombinant human CD47 (human) (UniProt Q08722); test: ELISA, plate coated with recombinant human CD47, OD450
[2] = molecular target: recombinant human CD47 (human) (UniProt Q08722); test: SPR, Biacore X100, antibody captured on Protein A chip, CD47 as analyte
[3] = molecular target: recombinant human CD47 (human) (UniProt Q08722); test: as above; remark: listed apart in the source
[4] = molecular target: recombinant human CD47-Fc protein (ACROBiosystems, catalog number CD7-H52A5) (human) (UniProt Q08722); test: blocking ELISA: plate coated with human CD47-Fc, 2 nM biotin-labelled SIRPα as the blocked ligand, falling OD450 curve; the sheet labels the half-maximal value EC50
Chain of recombinant human CD47-Fc protein (ACROBiosystems, catalog number CD7-H52A5) (human) (Q08722 19-139 limits assumed): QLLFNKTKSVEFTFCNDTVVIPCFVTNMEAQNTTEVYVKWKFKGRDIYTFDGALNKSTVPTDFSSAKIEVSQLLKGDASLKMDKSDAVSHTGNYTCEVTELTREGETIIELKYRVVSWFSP

[5] = molecular target: recombinant human CD47-Fc protein (ACROBiosystems, catalog number CD7-H52A5) (human) (UniProt Q08722); test: blocking ELISA: plate coated with human CD47-Fc, biotin-labelled SIRPα as the blocked ligand, falling OD450 curve; the sheet labels the half-maximal value EC50
[6] = molecular target: recombinant human CD47 (human) (UniProt Q08722); test: ELISA, plate coated with 1 µg/mL recombinant human CD47, OD450

Chain of recombinant human CD47 (human) (Q08722 19-139 limits assumed): as above

EC50 [1]: 0.033 nM
Kd [2]: 0.857 nM
koff [2]: 0.00135 s⁻¹
kon [2]: 1.57e+06 M⁻¹ s⁻¹
Kd [3]: 1.16 nM
koff [3]: 0.00176 s⁻¹
kon [3]: 1.52e+06 M⁻¹ s⁻¹
IC50 [4]: 1.43 nM
IC50 [5]: 0.774 nM
EC50 [6]: 0.058 nM
B1: control CC-90002 (a patent sequence from WO2016109415) (antibody, from another filing, V domains shown)
VH: QMQLVQSGAEVKKTGSSVKVSCKASGFNIKDYYLHWVRQAPGQALEWMGWIDPDQGDTEYAQKFQDRVTITRDRSMSTAYMELSSLRSEDTAMYYCNAAYGSSSYPMDYWGQGTTVTV
VL: NIQMTQSPSAMSASVGDRVTITCKASQDIHRYLSWFQQKPGKVPKHLIYRANRLVSGVPSRFSGSGSGTEFTLTISSLQPEDFATYYCLQYDEFPYTFGGGTKVEIK
